{"source": "patent US20230273213A1", "about": "“PEPTIDE DESIGN AND GALECTIN-3 INHIBITORS” (City of Hope, priority 2020, published 2023)", "key": {"GST-Galectin-3": {"target": "T1, GST-Galectin-3 (Homo sapiens, UniProt P17931)", "T1 construct": "Full-length human GST-Galectin-3 (hereafter named GST-Gal3) in pGEX2T was previously described; made in house", "T1 sequence (P17931 2-250)": "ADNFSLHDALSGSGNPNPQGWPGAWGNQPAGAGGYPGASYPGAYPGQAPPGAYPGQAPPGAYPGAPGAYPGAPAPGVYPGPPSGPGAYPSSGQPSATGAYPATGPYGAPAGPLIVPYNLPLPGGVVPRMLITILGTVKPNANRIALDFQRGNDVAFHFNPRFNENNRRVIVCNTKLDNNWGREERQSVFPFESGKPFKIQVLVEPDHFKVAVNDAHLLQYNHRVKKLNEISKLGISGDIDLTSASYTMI", "experiment": "Galectin-3 mediated agglutination assay on LAX56 pre-B ALL cells", "format": "cell-based", "experimental": "Cells, culture and agglutination assay. LAX56 human pre-B ALL cells were routinely co-cultured with mitomycin-C inactivated OP9 stromal cells. These previously described primary leukemia cell grew directly out from a relapse bone marrow sample (36, 37). For agglutination assays, cells were harvested, washed once in α-MEM medium, resuspended in 10 ml X-VIVO 15 medium (Lonza) and incubated at 37° C. for 24 h remove the Galectin-3 produced by OP9 stromal cells. For the assay, ALL cells were resuspended in X-VIVO 15 medium at a concentration of 1×10^6/ml and seeded at 2×10^5/200 μl cells into wells. […] Peptides, if included, were preincubated for 5 minutes with the recombinant proteins and added at different concentrations as indicated in the figures. TD139 was purchased from MedChemExpress and used at 100 μM. Phase contrast images were taken after 1-2 hours. Agglutination was defined as aggregates containing >10 cells per cluster. 2-13 images from different areas were taken and evaluated for cell clusters per condition. Biological data were graphed with GraphPad Prism software (version8.3.1). Values represent mean±SEM of the number of aggregates scored per independent image.\nWe used two approaches to test this experimentally. Mutation of critical residues in that pocket could abolish binding to the IDR and the agglutination activity of Galectin-3. Also, a peptide could potentially fit in the shallow pocket and inhibit the IDR interaction. A classical test for carbohydrate-binding activity of a lectin including Galectin-3 is an agglutination assay (36, 38, 42). In this assay, recombinant Galectin-3 is tested for its ability to promote lattice formation by binding in a multivalent manner to glycoproteins located on the cell surface: when cell surface glycoprotein targets are located on different cells, carbohydrate binding combined with multimer formation causes cellular agglutination. […] Thus we used an agglutination assay in which recombinant Galectin-3 is added to patient-derived precursor B-acute lymphoblastic leukemia cells (pre-B ALL) as a readout for Galectin-3 lattice-forming activity."}, "Galectin-3 CTD": {"target": "T2, Galectin-3 CTD (Homo sapiens, UniProt P17931)", "T2 construct": "We generated a Galectin-3 CTD construct including amino acids 117-250; GST (N, cleaved yes); made in house; host or cells: E. coli BL21(DE3), M9 medium with 15N ammonium chloride", "T2 sequence (P17931 117-250)": "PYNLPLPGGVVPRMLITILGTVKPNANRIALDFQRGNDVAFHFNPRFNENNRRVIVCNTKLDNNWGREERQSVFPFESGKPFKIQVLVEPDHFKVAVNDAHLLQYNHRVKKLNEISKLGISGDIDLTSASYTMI", "experiment": "15N-1H HSQC NMR titration of Galectin-3 CTD with peptide-3", "format": "binding", "experimental": "Galectin-3 CTD construct for NMR. The Galectin-3 C-terminal domain construct was generated using the same methods described above for the mutants. The protein includes Galectin-3 amino acids P117-1250 as well as residual attached glycine and serine residues after thrombin cleavage. Single colonies were grown overnight in LB+ amp, collected by centrifugation then inoculated in M9 media with ammonium-^15N chloride (Sigma) and grown for 3-4 hours. After induction of protein production with IPTG for an 3-4 additional hrs, cells were harvested and suspended in 1% NP40, PI, PMSF, 1 mM DTT, 50 mM Tris-HCl, pH 7.5. Cells were disrupted by sonication. GST-Galectin-3 was bound to glutathione-agarose (Genscript Cat #L00207) overnight at 4° C. Beads were washed 4× in lysis buffer, then suspended in 50 mM Tris-HCl pH 7.5, 0.1 mM DTT and treated with 60 u thrombin/ml (Fisher Cytiva Thrombin Protease) for 16 hrs at RT. The supernatant containing Galectin-3 protein was treated with benzamidine sepharose (Sigma, HiTrap Benzamidine FF) to bind and remove thrombin. Protein was concentrated using an Amicon 3K filter and used in 20 mM potassium phosphate buffer pH 6.8, 0.1 mM DTT for NMR. Protein concentrations were determined by BCA.\nNMR. ^15N-^1H HSQC 700 MHz spectra were acquired with 20 μM Galectin-3 CTD [in 20 mM potassium phosphate buffer, pH 6.8, 0.1 mM DTT] and different molar ratios of added peptide-3 as indicated in FIG. 5. The chemical shift perturbation (CSP) 06 was calculated using the following equation: Δ\\ delta=√{square root over ((ΔωN^2+ΔωH^2)/2)}. The ΔωN and ΔωH are the nitrogen and proton chemical shift difference between free ^15N-CTD and that in the mixture with P3 peptide. Assignments are based on the Galectin-3 CTD NMR data of Ippel (25) and Umemoto (39). […] Because L135 and W181 patterns differ between Ippel and Umemoto, their assignments could not be unambiguously determined. […]"}, "GST-Gal3 L131A": {"target": "T3, GST-Gal3 L131A (Homo sapiens, UniProt P17931, L131A)", "T3 construct": "Full-length human GST-Galectin-3 (hereafter named GST-Gal3) in pGEX2T was previously described; made in house; host or cells: E. coli BL21(DE3)", "T3 sequence (P17931 whole entry L131A)": "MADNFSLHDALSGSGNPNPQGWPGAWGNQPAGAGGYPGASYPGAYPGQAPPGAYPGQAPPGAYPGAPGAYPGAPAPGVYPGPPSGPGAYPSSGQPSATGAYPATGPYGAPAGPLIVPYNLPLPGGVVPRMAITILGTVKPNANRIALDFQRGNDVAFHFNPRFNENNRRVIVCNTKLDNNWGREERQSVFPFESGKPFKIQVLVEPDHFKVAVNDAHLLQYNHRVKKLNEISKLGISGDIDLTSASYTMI", "experiment": "agglutination assay with GST-Gal3 L131A mutant", "format": "cell-based", "conditions": "LAX56 cells", "experimental": "(§1) Cells, culture and agglutination assay. LAX56 human pre-B ALL cells were routinely co-cultured with mitomycin-C inactivated OP9 stromal cells. These previously described primary leukemia cell grew directly out from a relapse bone marrow sample (36, 37). For agglutination assays, cells were harvested, washed once in α-MEM medium, resuspended in 10 ml X-VIVO 15 medium (Lonza) and incubated at 37° C. for 24 h remove the Galectin-3 produced by OP9 stromal cells. For the assay, ALL cells were resuspended in X-VIVO 15 medium at a concentration of 1×10^6/ml and seeded at 2×10^5/200 μl cells into wells. GST (12.5 μg/ml) or GST-Galectin-3 (25 μg/ml or 150 μg/ml, two different isolates) recombinant proteins were added in 300 μl X-VIVO 15 medium to duplicate wells. Peptides, if included, were preincubated for 5 minutes with the recombinant proteins and added at different concentrations as indicated in the figures. TD139 was purchased from MedChemExpress and used at 100 μM. Phase contrast images were taken after 1-2 hours. Agglutination was defined as aggregates containing >10 cells per cluster. 2-13 images from different areas were taken and evaluated for cell clusters per condition. Biological data were graphed with GraphPad Prism software (version8.3.1). Values represent mean±SEM of the number of aggregates scored per independent image.\n(§2) GST-Galectin-3 and mutants. […]"}, "GST-Gal3 L203A": {"target": "T4, GST-Gal3 L203A (Homo sapiens, UniProt P17931, L203A)", "T4 construct": "Full-length human GST-Galectin-3 (hereafter named GST-Gal3) in pGEX2T was previously described; made in house; host or cells: E. coli BL21(DE3)", "T4 sequence (P17931 whole entry L203A)": "as the sequence (P17931 whole entry L131A) above, with A131L, L203A counted along it", "experiment": "agglutination assay with GST-Gal3 L203A mutant", "format": "cell-based", "conditions": "LAX56 cells", "experimental": "as §1, §2"}, "[1]": {"conditions": "GST-Gal3, 1-2 hours, peptide preincubated 5 minutes with protein"}}, "data": [{"molecule": "OC[C@H]1O[C@@H](S[C@@H]2O[C@H](CO)[C@H](O)[C@H](n3cc(-c4cccc(F)c4)nn3)[C@H]2O)[C@H](O)[C@@H](n2cc(-c3cccc(F)c3)nn2)[C@H]1O", "note": "[TD139, 3-deoxy-3-[4-(3-fluorophenyl)-1H-1,2,3-triazol-1-yl]-β-D-galactopyranosyl 3-deoxy-3-[4-(3-fluorophenyl)-1H-1,2,3-triazol-1-yl]-1-thio-β-D-galactopyranoside, reference compound]", "values": [{"measurement": "effect on Galectin-3-mediated agglutination", "setting": "GST-Galectin-3; GST-Gal3, 100 μM, positive control", "value": "clearly inhibited"}]}, {"molecule": "ACE-ARAMGYPGASY-NH2 (Ac-ARAMGYPGASY-NH2) [Peptide 1]", "values": [{"measurement": "effect on Galectin-3-mediated agglutination", "setting": "GST-Galectin-3; [1]", "value": "had no effect on agglutination"}]}, {"molecule": "ACE-YYPGAYPRRYR-NH2 (Ac-YYPGAYPRRYR-NH2) [Peptide 3]", "values": [{"measurement": "contacts with the CTD by NMR", "setting": "Galectin-3 CTD; 20 μM 15N CTD, up to 100:1 peptide:CTD", "value": "makes extensive contacts with amino acids in the CTD"}, {"measurement": "shift of S-face residues R186, K227 or Y221 upon exposure", "setting": "Galectin-3 CTD; data not shown", "value": "no shift"}, {"measurement": "chemical shift perturbation (CSP) of residue T248", "setting": "Galectin-3 CTD; one unit of RMSD", "value": "about 10.9 Hz"}, {"measurement": "effect on Galectin-3-mediated agglutination", "setting": "GST-Galectin-3; [1]", "value": "positive hit"}, {"measurement": "effect on Galectin-3-mediated agglutination", "setting": "GST-Galectin-3; GST-Gal3, 1-2 hours, peptide preincubated 5 minutes with protein, listed as P3", "value": "efficiently inhibits"}, {"measurement": "effect on Galectin-3-mediated agglutination", "setting": "GST-Galectin-3; GST-Gal3, 1-2 hours, peptide preincubated 5 minutes with protein, listed as YYPGAYPRRYR", "value": "inhibits Galectin-3 mediated agglutination"}, {"measurement": "effect on Galectin-3-mediated agglutination", "setting": "GST-Galectin-3; GST-Gal3, 1-2 hours, peptide preincubated 5 minutes with protein, listed as peptide 3", "value": "inhibits agglutination"}, {"measurement": "effect on Galectin-3-mediated agglutination", "setting": "GST-Galectin-3; GST-Gal3, 1-2 hours, peptide preincubated 5 minutes with protein, listed as peptide-3", "value": "clearly was inhibitory"}, {"measurement": "inhibition of agglutination mediated by the L131A mutant", "setting": "GST-Gal3 L131A", "value": "largely insensitive to inhibition"}, {"measurement": "inhibition of agglutination mediated by the L203A mutant", "setting": "GST-Gal3 L203A", "value": "could still be inhibited"}]}, {"molecule": "ANTPCGPYTHDCPVKR [Peptide-4, reference compound]", "values": [{"measurement": "effect on Galectin-3-mediated agglutination", "setting": "GST-Galectin-3; [1]", "value": "did not have an effect"}]}, {"molecule": "N-terminal acetyl-ARAFGYPIYSY-C-terminal amide (Ac-ARAFGYPIYSY-NH2) [Peptide 2]", "values": [{"measurement": "effect on Galectin-3-mediated agglutination", "setting": "GST-Galectin-3; [1]", "value": "had no effect on agglutination"}]}, {"molecule": "PTHVTCKYCPAGNRDP [Peptide-5, scrambled negative control peptide described in the same study, reference compound]", "values": [{"measurement": "effect on Galectin-3-mediated agglutination", "setting": "GST-Galectin-3; [1]", "value": "did not have an effect"}]}]}
